According to PMC4249942 (Biochemistry, 2012):
Residue numbers refer to the chain shown, from its start. Names may count otherwise.

B1: PerB (Caulobacter vibrioides) (protein)
chain: MSASLAIGGVVIIGGGGHAKVVIESLRACGETVAAIVDADPTRRAVLGVPVVGDDLALPMLREQGLSRLFVAIGDNRLRQKLGRKARDHGFSLVNAIHPSAVVSPSVRLGEGVAVMAGVAINADSWIGDLAIINTGAVVDHDCRLGAACHLGPASALAGGVSVGERAFLGVGARVIPGVTIGADTIVGAGGVVVRDLPDSVLAIGVPAKIKGDRS
B2: PerB (Caulobacter vibrioides; D142N) (protein)
chain: B1 chain with D142N
B3: PerB (Caulobacter vibrioides; H141A) (protein)
chain: B1 chain with H141A
B4: PerB (Caulobacter vibrioides; H141N) (protein)
chain: B1 chain with H141N

Key:
[1] = biological target: T1, PerB (Caulobacter vibrioides, UniProt O85353); test: X-ray crystal structure, […] Å; type: binding
[2] = biological target: T1, PerB; test: HPLC, ESI-MS and 1H NMR of the product; type: biochemical; conditions: acetyl CoA 1 mM, HEPES pH 7.5, 10 mM MgCl2, room temperature
[3] = substrate: C[C@H]1O[C@H](OP(=O)(O)OP(=O)(O)OC[C@H]2O[C@@H](n3cnc4c(=O)[nH]c(N)nc43)[C@H](O)[C@@H]2O)[C@@H](O)[C@@H](O)[C@@H]1N; test: discontinuous HPLC assay; type: biochemical, Caulobacter vibrioides; conditions: pH 8.0, 25 °C, acetyl CoA co-substrate
[4] = substrate: CC(=O)SCCNC(=O)CCNC(=O)[C@H](O)C(C)(C)COP(=O)(O)OP(=O)(O)OC[C@H]1O[C@@H](n2cnc3c(N)ncnc32)[C@H](O)[C@@H]1OP(=O)(O)O; test: discontinuous HPLC assay; type: biochemical, Caulobacter vibrioides; conditions: pH 8.0, 25 °C, GDP-perosamine co-substrate

Row | Molecule | Km [3] | Km [4] | further results
1 | CC(C)(COP(=O)(O)OP(=O)(O)OC[C@H]1O[C@@H](n2cnc3c(N)ncnc32)[C@H](O)[C@@H]1OP(=O)(O)O)[C@@H](O)C(=O)NCCC(=O)NCCS [CoA] | – | – | X-ray crystal structure, 1.0 Å ([1]; with GDP-perosamine): The first was that of the enzyme with bound CoA and GDP-perosamine.
2 | CC(=O)N[C@H]1[C@H](O)[C@H](O)[C@@H](OP(=O)(O)OP(=O)(O)OC[C@H]2O[C@@H](n3cnc4c(=O)[nH]c(N)nc43)[C@H](O)[C@@H]2O)O[C@@H]1C [GDP-N-acetylperosamine] | – | – | X-ray crystal structure, 1.0 Å ([1]; with CoA, formed by turnover in the crystal): The enzyme turned over, and CoA and GDP-N-acetylperosamine were left bound in the active site.
3 | C[C@H]1O[C@H](OP(=O)(O)OP(=O)(O)OC[C@H]2O[C@@H](n3cnc4c(=O)[nH]c(N)nc43)[C@H](O)[C@@H]2O)C(O)CC1N (some centres unmarked) [GDP-3-deoxyperosamine] | – | – | HPLC, ESI-MS and 1H NMR of the product [2]: Using GDP-3-deoxyperosamine, we were able to, indeed, show that PerB produces an acetylated form
4 | B1 | 87 ± 11 µM | 150 ± 20 µM | –
5 | B2 | 110 ± 10 µM | 59 ± 7 µM | –
6 | B3 | 200 ± 10 µM | 110 ± 10 µM | –
7 | B4 | 150 ± 10 µM | 94 ± 17 µM | –
